Assay results taken from PMC4177672, “The Vip1 Inositol Polyphosphate Kinase Family Regulates Polarized Growth and Modulates the Microtubule Cytoskeleton in Fungi” (PLoS Genetics, 2014).

Assays:
[1] = target: T1, GST-Vip1^1-535 (Saccharomyces cerevisiae, UniProt Q06685); assay: IP7 formation, PAGE with Toluidine Blue stain; type: biochemical; settings: 1 µg protein; positive control enzyme
T1 construct: kinase domain residues 1-535, GST tag kept, E. coli Rosetta, purified

[2] = system: O=P(O)(O)O[C@H]1[C@H](OP(=O)(O)O)[C@@H](OP(=O)(O)O)[C@H](OP(=O)(O)O)[C@@H](OP(=O)(O)O)[C@H]1OP(=O)(O)O; assay: purified protein; settings: 0-300 µM IP6; ATP-dependent; 2 µg protein; 6 h

T1 sequence (Q06685 1-535): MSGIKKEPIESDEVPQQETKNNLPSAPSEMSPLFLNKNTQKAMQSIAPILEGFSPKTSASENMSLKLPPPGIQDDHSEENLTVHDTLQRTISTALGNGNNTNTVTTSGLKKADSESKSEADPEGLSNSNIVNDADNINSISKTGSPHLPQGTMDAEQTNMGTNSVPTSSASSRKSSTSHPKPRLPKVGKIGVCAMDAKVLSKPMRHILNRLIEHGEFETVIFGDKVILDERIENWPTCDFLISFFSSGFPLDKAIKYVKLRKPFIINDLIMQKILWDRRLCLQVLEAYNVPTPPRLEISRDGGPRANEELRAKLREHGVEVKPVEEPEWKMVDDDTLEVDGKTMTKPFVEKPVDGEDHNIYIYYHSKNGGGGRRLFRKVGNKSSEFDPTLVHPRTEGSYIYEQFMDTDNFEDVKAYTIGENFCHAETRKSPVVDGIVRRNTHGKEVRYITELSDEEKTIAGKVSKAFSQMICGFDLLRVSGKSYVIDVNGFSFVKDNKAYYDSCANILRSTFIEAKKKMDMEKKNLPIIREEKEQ

Compound | IP7 formation, PAGE with Toluidine Blue stain [1] | Km [2] [µM]
O=P(O)(O)O[C@H]1[C@H](OP(=O)(O)O)[C@@H](OP(=O)(O)O)[C@H](OP(=O)(O)O)[C@@H](OP(=O)(O)O)[C@H]1OP(=O)(O)O [IP6] | S. cerevisiae Vip1 for which enzymatic activity had been demonstrated was used as a positive control | 
GST-Asp1 (full length) (Schizosaccharomyces pombe 972h-) |  | 58.18
GST-Asp1 (full length) (Schizosaccharomyces pombe 972h-; H397A) |  | 57.32
